Experiment [1] deals with HOTag6-G10-Ub (designed tetrameric ubiquitin construct). As to the kind of experiment: NMR titration.
Experiment [2] deals with T1, M1-linked tetraubiquitin (M1-Ub4) (UniProt P0CG48 1-76; P0CG48 1-76; P0CG48 1-76; P0CG48 1-76). As to the kind of experiment: NMR titration.
For experiment [3], the target named is ubiquitin (Ub) (UniProt P0CG48 1-76). As to the kind of experiment: fluorescence polarisation.
For experiment [4], the target named is HOTag6-G10-Ub (designed tetrameric ubiquitin construct). As to the kind of experiment: fluorescence polarisation.
Experiment [5] has as its target T1, M1-linked tetraubiquitin (M1-Ub4). As to the kind of experiment: fluorescence polarisation.

T1 sequence (P0CG48 1-304, one chain of several): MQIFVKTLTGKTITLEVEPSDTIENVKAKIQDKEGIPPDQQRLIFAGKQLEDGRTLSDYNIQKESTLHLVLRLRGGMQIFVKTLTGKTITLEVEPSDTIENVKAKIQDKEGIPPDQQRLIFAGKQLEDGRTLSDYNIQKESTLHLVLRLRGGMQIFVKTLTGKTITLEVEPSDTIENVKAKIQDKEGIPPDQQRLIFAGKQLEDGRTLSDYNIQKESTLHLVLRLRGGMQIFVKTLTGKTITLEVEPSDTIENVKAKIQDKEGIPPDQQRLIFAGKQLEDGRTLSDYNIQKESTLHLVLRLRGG

B1: UBQLN2 450–624 (domain or fragment, UniProt Q9UHD9 450-624, looked up)
chain: RAMQALMQIQQGLQTLATEAPGLIPSFTPGVGVGVLGTAIGPVGPVTPIGPIGPIVPFTPIGPIGPIGPTGPAAPPGSTGSGGPTGPTVSSAAPSETTSPTSESGPNQQFIQQMVQALAGANAPQLPNPEVRFQQQLEQLNAMGFLNREANLQALIATGGDINAAIERLLGSQPS
For B1, the Kd in experiment [1] was 8.8 µM; in experiment [2], 12.8 µM.

B2: fluorescently-labeled UBQLN2 450–624 (S624C, Alexa Fluor 488) (domain or fragment, UniProt Q9UHD9 450-624, looked up)
chain: RAMQALMQIQQGLQTLATEAPGLIPSFTPGVGVGVLGTAIGPVGPVTPIGPIGPIVPFTPIGPIGPIGPTGPAAPPGSTGSGGPTGPTVSSAAPSETTSPTSESGPNQQFIQQMVQALAGANAPQLPNPEVRFQQQLEQLNAMGFLNREANLQALIATGGDINAAIERLLGSQPC
modifications: Alexa Fluor 488 C5 Maleimide on the cysteine of S624C
As for B2, the figures for the Kd in experiment [3], in experiment [4] and in experiment [5] were 3.4 µM, 7 µM and 5.1 µM, respectively.

These data come from PMC9346500 (EMBO Reports, 2022).
